# Molecular target: CD28 (human) (UniProt P10747)
# Assay: cell-based or functional assay
"IL-2-luciferase RLU, Jurkat + K562/OKT3/PD-L1 aAPC, 50 nM","IL-2 release, primary T cells; K562/OKT3 (No PD-L1); 1 nM","IL-2 release, primary T cells; K562/OKT3 (No PD-L1); 10 nM","IL-2 release, primary T cells; K562/OKT3 (No PD-L1); 100 nM","Fold Increase over WT CD80-IgV-Fc, same assay, 50 nM","IL-2-luciferase RLU, Jurkat + CHO/OKT3/PD-L1 aAPC, 0.6 nM","IL-2-luciferase RLU, Jurkat + CHO/OKT3/PD-L1 aAPC, 1.9 nM","IL-2-luciferase RLU, Jurkat + CHO/OKT3/PD-L1 aAPC, 5.6 nM","IL-2-luciferase RLU, Jurkat + CHO/OKT3/PD-L1 aAPC, 16.7 nM","IL-2-luciferase RLU, Jurkat + CHO/OKT3/PD-L1 aAPC, 50 nM",Substance
3040 RLU,,,,,,,,,,WT CD80-ECD-Fc (effector) (from UniProt P33681 35-242) (Fc fusion)
,7080,6920,6260,,,,,,,WT IgG1 Fc Control
569 RLU,,,,,,,,,,variant CD80 IgV-Fc (inert) A26E/Q33R/E35D/M47L/L85Q/K86E (Fc fusion)
3240 RLU,,,,5.7 fold,,,,,,variant CD80 IgV-Fc (inert) E24D/Q33L/E35D/M47V/K54R/L85Q (Fc fusion)
1090 RLU,,,,1.9 fold,,,,,,variant CD80 IgV-Fc (inert) E35D/D46E/M47V/L97Q (Fc fusion)
,,,,4 fold,,,,,,variant CD80 IgV-Fc (inert) E35D/D46V/M47I/A71G/F92V (Fc fusion)
,,,,5 fold,,,,,,variant CD80 IgV-Fc (inert) E35D/M47L/L85Q (Fc fusion)
2650 RLU,,,,4.7 fold,,,,,,variant CD80 IgV-Fc (inert) H18L/V22A/E35D/M47L/N48T/L85Q (Fc fusion)
408 RLU,,,,0.7 fold,,,,,,variant CD80 IgV-Fc (inert) H18Y/A26E/Q33L/E35D/M47L/L85Q (Fc fusion)
486 RLU,,,,0.9 fold,,,,,,variant CD80 IgV-Fc (inert) H18Y/Q33L/E35D/M47I (Fc fusion)
513 RLU,,,,0.9 fold,,,,,,variant CD80 IgV-Fc (inert) Q27H/E35D/M47L/L85Q/R94Q/E95K (Fc fusion)
504 RLU,,,,0.9 fold,,,,,,variant CD80 IgV-Fc (inert) Q33K/E35D/D46V/L85Q (Fc fusion)
554 RLU,,,,,,,,,,variant CD80 IgV-Fc (inert) Q33L/E35D/D46E/M47I (Fc fusion)
423 RLU,,,,0.7 fold,,,,,,variant CD80 IgV-Fc (inert) Q33L/E35D/M47I (Fc fusion)
432 RLU,,,,,,,,,,variant CD80 IgV-Fc (inert) Q33L/E35D/M47I/L85Q (Fc fusion)
394 RLU,,,,0.7 fold,,,,,,variant CD80 IgV-Fc (inert) Q33L/E35D/M47L/A71G/F92S (Fc fusion)
527 RLU,,,,0.9 fold,,,,,,variant CD80 IgV-Fc (inert) Q33L/E35D/M47V/T79A (Fc fusion)
358 RLU,,,,0.6 fold,,,,,,variant CD80 IgV-Fc (inert) Q33L/E35D/N48K/L85Q/L97Q (Fc fusion)
533 RLU,,,,0.9 fold,,,,,,variant CD80 IgV-Fc (inert) Q33L/E35D/T41S/M43I (Fc fusion)
522 RLU,,,,0.9 fold,,,,,,variant CD80 IgV-Fc (inert) Q33R/E35D/D46E/M47I (Fc fusion)
464 RLU,,,,,,,,,,variant CD80 IgV-Fc (inert) Q33R/E35D/K37E/M47V/L85Q (Fc fusion)

# More lines, now with the values behind:
Substance,"IL-2-luciferase RLU, Jurkat + K562/OKT3/PD-L1 aAPC, 50 nM","IL-2 release, primary T cells; K562/OKT3 (No PD-L1); 1 nM","IL-2 release, primary T cells; K562/OKT3 (No PD-L1); 10 nM","IL-2 release, primary T cells; K562/OKT3 (No PD-L1); 100 nM","Fold Increase over WT CD80-IgV-Fc, same assay, 50 nM","IL-2-luciferase RLU, Jurkat + CHO/OKT3/PD-L1 aAPC, 0.6 nM","IL-2-luciferase RLU, Jurkat + CHO/OKT3/PD-L1 aAPC, 1.9 nM","IL-2-luciferase RLU, Jurkat + CHO/OKT3/PD-L1 aAPC, 5.6 nM","IL-2-luciferase RLU, Jurkat + CHO/OKT3/PD-L1 aAPC, 16.7 nM","IL-2-luciferase RLU, Jurkat + CHO/OKT3/PD-L1 aAPC, 50 nM"
variant CD80 IgV-Fc (inert) A26E/E35D/M43I/M47L/L85Q/K86E/R94W (Fc fusion),498 RLU,,,,0.9 fold,,,,,
variant CD80 IgV-Fc (inert) A26E/E35D/M43T/M47L/L85Q/R94Q (Fc fusion),526 RLU,,,,0.9 fold,,,,,
variant CD80 IgV-Fc (inert) A26E/Q33L/E35D/M47L (Fc fusion),476 RLU,,,,,,,,,
variant CD80 IgV-Fc (inert) A26E/Q33L/E35D/M47L/L85Q (Fc fusion),416 RLU,,,,0.7 fold,,,,,
variant CD80 IgV-Fc (inert) A26E/Q33R/E35D/M47L/L85Q (Fc fusion),500 RLU,,,,0.9 fold,,,,,
variant CD80 IgV-Fc (inert) A71D/L72V/E95K (Fc fusion),,,,,,524 RLU,530 RLU,617 RLU,641 RLU,755 RLU
variant CD80 IgV-Fc (inert) E7D/E35D/M47I/L97Q (Fc fusion),1240 RLU,,,,2.2 fold,,,,,
variant CD80 IgV-Fc (inert) E35D/M47I/E77A/L85Q/R94W (Fc fusion),473 RLU,,,,,,,,,
variant CD80 IgV-Fc (inert) E35D/M47I/K54R/L85E (Fc fusion),602 RLU,,,,1.1 fold,,,,,
variant CD80 IgV-Fc (inert) E35D/M47L/A71G/L97Q (Fc fusion),2160 RLU,,,,3.8 fold,,,,,
variant CD80 IgV-Fc (inert) E35D/M47V/A71G/L85M/L97Q (Fc fusion),576 RLU,,,,,,,,,
variant CD80 IgV-Fc (inert) E35D/M47V/T62A/A71G/V83A/Y87H/L97M (Fc fusion),438 RLU,,,,,,,,,
variant CD80 IgV-Fc (inert) H18Y/A26T/E35D/A71D/L85Q (Fc fusion),,,,,,628 RLU,621 RLU,795 RLU,974 RLU,1160 RLU
variant CD80 IgV-Fc (inert) H18Y/E35D/M47L (Fc fusion),2980 RLU,,,,5.3 fold,,,,,
variant CD80 IgV-Fc (inert) H18Y/E35D/V68M/L97Q (Fc fusion),4340 RLU,,,,,,,,,
variant CD80 IgV-Fc (inert) H18Y/V20A/Q33L/E35D/M47V/Y53F (Fc fusion),566 RLU,,,,,,,,,
variant CD80 IgV-Fc (inert) H18Y/Y31H/E35D/M47V/A71G/L85Q (Fc fusion),455 RLU,,,,,,,,,
variant CD80 IgV-Fc (inert) Q27H/Q33L/E35D/M47V/N55D/L85Q/K89N (Fc fusion),551 RLU,,,,,,,,,
variant CD80 IgV-Fc (inert) Q33K/E35D/M47V/K89E/K93R (Fc fusion),415 RLU,,,,0.7 fold,,,,,
variant CD80 IgV-Fc (inert) Q33L/E35D/M43I/L85Q/R94W (Fc fusion),553 RLU,,,,,,,,,
variant CD80 IgV-Fc (inert) Q33L/E35D/M43V/M47I/A71G (Fc fusion),473 RLU,,,,,,,,,
variant CD80 IgV-Fc (inert) Q33L/E35D/M47I/T62N/L85Q (Fc fusion),463 RLU,,,,,,,,,
variant CD80 IgV-Fc (inert) Q33L/E35D/M47L/V68M/L85Q/E88D (Fc fusion),572 RLU,,,,,,,,,
variant CD80 IgV-Fc (inert) Q33L/E35D/M47V (Fc fusion),393 RLU,,,,0.7 fold,,,,,
variant CD80 IgV-Fc (inert) Q33L/E35D/M47V/L85Q (Fc fusion),556 RLU,,,,,,,,,
variant CD80 IgV-Fc (inert) Q33L/E35D/T41S/M47V (Fc fusion),481 RLU,,,,,,,,,
variant CD80 IgV-Fc (inert) S15P/Q33L/E35D/M47L/L85Q (Fc fusion),468 RLU,,,,,,,,,
variant CD80 IgV-Fc (inert) V22A/E23D/Q33L/E35D/M47V (Fc fusion),390 RLU,,,,0.7 fold,,,,,
variant CD80 IgV-Fc (inert) V22A/E35D/V68E/A71D (Fc fusion),538 RLU,,,,,,,,,
variant CD80 IgV-Fc (inert) V22A/R29H/E35D/D46E/M47I (Fc fusion),3310 RLU,,,,5.9 fold,,,,,

# Same assay, conditions: not given
Substance,"IL-2-luciferase RLU, Jurkat + CHO/OKT3 aAPC (no PD-L1), 5.6 nM","IL-2-luciferase RLU, Jurkat + CHO/OKT3 aAPC (no PD-L1), 16.7 nM","IL-2-luciferase RLU, Jurkat + CHO/OKT3 aAPC (no PD-L1), 50 nM"
variant CD80 IgV-Fc (inert) A71D/L72V/E95K (Fc fusion),466 RLU,547 RLU,644 RLU
variant CD80 IgV-Fc (inert) H18Y/A26T/E35D/A71D/L85Q (Fc fusion),,660 RLU,926 RLU
